The source of these data is patent US20210253678A1 (CUREAB, published 2021).

In assay [1] the target is T1, human GP73 (GOLM1, GOLPH2) in Alexander (PLC/PRF/5) cells (human, UniProt Q8NBJ4 1-401).
T1 construct: Endogenous protein of the cell line; cells were fixed with paraformaldehyde and treated with saponin
T1 sequence: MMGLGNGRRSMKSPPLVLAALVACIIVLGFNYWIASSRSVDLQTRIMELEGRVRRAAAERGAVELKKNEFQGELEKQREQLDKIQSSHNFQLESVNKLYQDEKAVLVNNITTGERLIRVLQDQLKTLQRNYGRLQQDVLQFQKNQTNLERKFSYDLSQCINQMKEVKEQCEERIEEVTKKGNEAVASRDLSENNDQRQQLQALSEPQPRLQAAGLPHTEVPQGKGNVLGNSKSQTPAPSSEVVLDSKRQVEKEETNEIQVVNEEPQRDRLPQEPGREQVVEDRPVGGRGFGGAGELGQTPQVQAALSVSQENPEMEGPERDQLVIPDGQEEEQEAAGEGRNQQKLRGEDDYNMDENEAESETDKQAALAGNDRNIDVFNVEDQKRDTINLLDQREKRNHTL
The assay can be described thus: immunofluorescence on fixed, saponin treated Alexander cells. As to the method: Alexander cells were grown on 4 chamber slides, fixed with 4% paraformaldehyde, treated with 0.2% Saponin and blocked with 10% bovine serum albumin. Cells were incubated for one hour with goat anti-GP73 (santa cruz sc-48010) and mG2-2 and washed. Bound antibodies were stained with anti goat Alexa Fluor 488 (abeam ab150129) and anti mouse Alexa Fluor 647 (abeam ab150115). Nuclei were treated with DAPI.

Assay [2] deals with T2, GP73 (endogenous human GP73 on HEK 293, HuH7, JHH4 and DU145 cells and in human tissue sections).
T2 construct: One entry for all cell lines and tissues; also called GOLM1; GOLPH2
T2 antigen: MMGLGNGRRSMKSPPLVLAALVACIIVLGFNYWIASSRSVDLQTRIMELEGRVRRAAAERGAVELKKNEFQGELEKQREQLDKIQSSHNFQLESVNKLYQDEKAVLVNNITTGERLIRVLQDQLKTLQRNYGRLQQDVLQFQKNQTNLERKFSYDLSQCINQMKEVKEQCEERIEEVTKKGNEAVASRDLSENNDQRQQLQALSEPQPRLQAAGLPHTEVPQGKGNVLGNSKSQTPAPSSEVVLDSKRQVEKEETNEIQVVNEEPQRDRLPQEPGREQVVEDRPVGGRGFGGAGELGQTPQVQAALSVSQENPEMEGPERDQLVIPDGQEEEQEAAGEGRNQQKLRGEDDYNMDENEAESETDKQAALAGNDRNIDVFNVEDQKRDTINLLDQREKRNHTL
The assay can be described thus: immunohistochemistry, paraffin section of hepatitis liver, anti-mouse secondary. An excerpt:
FIG. 5 Immunohistochemical staining of tissues with the anti-rGOLPH antibody G2-2 and controls. Paraffin embedded tissues of A normal liver B hepatitis liver C and D hepatocellular carcinoma (HCC) were stained with murine G2-2 (mG2-2) (A,B,C) or anti-GP73 antibody M06A (Sigma) followed by secondary staining with an anti-mouse antibody and examined under a microscope by 40× magnification as described in Example 3.
Paraffin embedded tissues of normal liver, hepatitis liver, hepatocellular carcinoma (HCC), endometrium carcinoma, ovarian carcinoma, melanoma, small cell lung cancer and gastric cancer were stained with murine G2-2 (mG2-2) or mouse anti GOLPH (M06A Sigma) followed by secondary staining with an anti-mouse IgG. Nuclei were stained with hematoxylin (blue), cytoplasma was stained with hemalum-eosin.

Assay [3] deals with T3, peptide AA 36-55 of GP73 (rGP73), SSRSVDLQTRIMELEGRVRR (human, biotinylated in the ELISAs (position not given)).
T3 construct: also called GP73 peptide; peptide rGP73 (GP73 AA 36 to 55)
T3 peptide: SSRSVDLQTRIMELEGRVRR
Briefly: SPR (Biacore), fit for 1:1 binding, mean of measurements 1 + 2, GP73 peptide. (Surface plasmon resonance follows binding to a sensor surface in real time, without labels.)

The target in assay [4] is T2, GP73 (endogenous human GP73 on HEK 293, …). The assay can be described thus: flow cytometry of antibody left on the surface of HuH7 cells (panel title) after loading at 4°C; detection with APC anti-human Fab. As to the method:
Cells were incubated with 10 ug/ml of G2-2 or G2-1 for one hour at 4° C. in PBS. Unbound G2-2 was washed away and cells were transferred to tissue culture medium with 10% FCS and then either warmed to 37° C. to allow internalization or maintained at 4° C. The internalization process was stopped after 15, 30, 60 or 120 minutes by transferring the cells into ice-cold buffer with 0.1% […]. Cells were stained with APC-conjugated goat anti-human Fab (Jackson Immuno) and analyzed by FACS. The residual levels of cell surface G2-2 was calculated based on the mean fluorescence intensity (MFI).

For assay [5] the target is unchanged. The assay can be described thus: flow cytometry, surface staining of HEK 293 cells, axis anti-mouse APC. As to the method: Detection of surface staining of cells is depicted as continuous line, only secondary antibody control detection is depicted as dashed line as described in Example 4.
Different human and murine cell lines e.g. HuH7, JHH4, HEK293, HEK293-GP73-myc and Ramos were tested by Flow cytometry analysis for expression of GP73 on their cell surface and binding of G2-2, G2-1 and G2-4. […]
On the technique in general: A flow cytometer gives signals particle by particle.

For assay [6], the target named is T4, sGP73-10×His, encompassing GP73 AA56 to 401 (human, UniProt Q8NBJ4 56-401).
T4 construct: also called sGP73-His; sGP73-HIS
T4 sequence: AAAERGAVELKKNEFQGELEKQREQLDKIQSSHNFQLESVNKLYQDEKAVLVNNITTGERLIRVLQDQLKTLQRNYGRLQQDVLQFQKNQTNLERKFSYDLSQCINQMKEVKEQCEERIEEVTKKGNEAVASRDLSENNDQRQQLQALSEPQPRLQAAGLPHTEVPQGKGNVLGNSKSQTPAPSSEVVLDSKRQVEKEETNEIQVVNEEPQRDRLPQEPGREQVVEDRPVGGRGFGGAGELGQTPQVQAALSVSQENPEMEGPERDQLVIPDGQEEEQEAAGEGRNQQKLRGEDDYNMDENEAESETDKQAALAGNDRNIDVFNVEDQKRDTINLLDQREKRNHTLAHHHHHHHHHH
Briefly: ELISA on coated sGP73-His, anti mouse HRP secondary. As to the method: (§1) ELISA was carried out in 96 well plates coated overnight with sGP73 or GP73 AVRR and blocked with 2% gelatine. Antibodies 8A10, G2-2opti (IgG2a) or isotype control antibody were applied, incubated for 1.5 hours and washed away. A secondary Horse radish peroxidase labeled anti mouse antibody was added for 1 hour and after extensive washing a chromogenic substrate (TMB Amersham) was applied to detect peroxidase.

Assay [7] deals with T5, GP73-10×His AVRR, encompassing GP73 AA36 to 401 with a R52A mutation (human, UniProt Q8NBJ4 36-401).
T5 construct: also called GP73 AVRR; GP73-His AVRR
T5 sequence: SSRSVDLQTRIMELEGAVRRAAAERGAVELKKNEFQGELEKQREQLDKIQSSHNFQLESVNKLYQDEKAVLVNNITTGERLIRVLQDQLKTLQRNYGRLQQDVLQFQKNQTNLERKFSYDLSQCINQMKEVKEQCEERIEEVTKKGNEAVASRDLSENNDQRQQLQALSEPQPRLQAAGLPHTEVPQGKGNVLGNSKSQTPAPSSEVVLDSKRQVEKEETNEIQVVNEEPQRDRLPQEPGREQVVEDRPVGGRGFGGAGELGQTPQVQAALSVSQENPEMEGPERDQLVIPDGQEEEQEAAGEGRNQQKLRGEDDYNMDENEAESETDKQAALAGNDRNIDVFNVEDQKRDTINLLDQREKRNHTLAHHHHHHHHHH
The assay can be described thus: ELISA on coated GP73-His AVRR, anti mouse HRP secondary. As to the method:
as §1
(In general: ELISA stands for enzyme-linked immunosorbent assay.)

For assay [8], the target named is T3, peptide AA 36-55 of GP73 (rGP73), …. The assay can be described thus: peptide ELISA on coated biotinylated rGP73 AA36-55, anti mouse HRP secondary. As to the method: ELISA was carried out in 96 well plates coated overnight with the biotinylated peptide gp73 AA 36-55 or an unrelated peptide and blocked with 2% gelatine. Antibodies 8A10, G2-2opti (IgG2a) or isotype control antibody (IgG2a) were applied, incubated for 1.5 hours and then washed away. A secondary horse radish peroxidase labeled anti mouse antibody was added for 1 hour and after extensive washing a chromogenic substrate (TMB Amersham) was applied to detect peroxidase.

A word on the Kd: it is the free concentration of one partner at which half of the binding sites on the other are occupied at equilibrium, for simple one-to-one binding. As usually defined, the koff is the first-order rate constant of dissociation. A word on the kon: it is the rate constant with which the complex forms.

B1: mG2-2 (G2-2 variable regions with murine IgG2a heavy chain and human Igk light chain constant regions) (antibody)
heavy: EVQLLQSGGGVVQPGRSLRLSCAASGFTFSSYGMSWVRQAPGKGLEWVAVISYDGSNKYYADSVKGRFTISRDNSKNTLYLQMNSLRAEDTAVYYCAREGSAGMDVWGQGTTVTVSSASTTAPSVYPLAPVCGDTTGSSVTLGCLVKGYFPEPVTLTWNSGSLSSGVHTFPAVLQSDLYTLSSSVTVTSSTWPSQSITCNVAHPASSTKVDKKIEPRGPTIKPCPPCKCPAPNLLGGPSVFIFPPKIKDVLMISLSPIVTCVVVDVSEDDPDVQISWFVNNVEVHTAQTQTHREDYNSTLRVVSALPIQHQDWMSGKEFKCKVNNKDLPAPIERTISKPKGSVRAPQVYVLPPPEEEMTKKQVTLTCMVTDFMPEDIYVEWTNNGKTELNYKNTEPVLDSDGSYFMYSKLRVEKKNWVERNSYSCSVVHEGLHNHHTTKSFSRTPGK
light: DIQMTQPSSLSASPGASASLTCTLRSDISVGFHRIYWYQQKPGSPPQYLLRYKSDSDKQQGSGVPSRFSGSKDASANAGILLISGLQSDDEADYYCVIWHTSGVVFGGGTKVEIKRTVAAPSVFIFPPSDEQLKSGTASVVCLLNNFYPREAKVQWKVDNALQSGNSQESVTEQDSKDSTYSLSSTLTLSKADYEKHKVYACEVTHQGLSSPVTKSFNRGEC
notes: also called murine G2-2
Take B1: the binding result in assay [1] and in assay [2] was “binds” each time.

B2: G2-2 (human IgG1 heavy chain and human Igk light chain constant regions) (antibody)
heavy: not shown
light: DIQMTQPSSLSASPGASASLTCTLRSDISVGFHRIYWYQQKPGSPPQYLLRYKSDSDKQQGSGVPSRFSGSKDASANAGILLISGLQSDDEADYYCVIWHTSGVVFGGGTKVEIKRTVAAPSVFIFPPSDEQLKSGTASVVCLLNNFYPREAKVQWKVDNALQSGNSQESVTEQDSKDSTYSLSSTLTLSKADYEKHKVYACEVTHQGLSSPVTKSFNRGEC
notes: scFv clone from a human scFv library, cloned as human IgG1/kappa; also called G2-2-HRP (horse radish peroxidase labeled); anti-rGOLPH antibody G2-2
Consider B2, for which, in assay [3], the Kd amounted to 4.29 nM, the koff stood at 0.00111 s⁻¹ and the kon is 260000 M⁻¹ s⁻¹. For the same molecule, the binding result in assay [4] is given as “binds”.

B3: G2-4 (antibody, V domains shown)
VH: QVQLEESGGGLVQPGGSLRLSCATSGFTFTDYYMSWVRQPPGKALEWLGFIRNKAKGYTTEYSASVKGRFTISRDNSQSILYLQMNTLRAEDSATYYCARDPSTNYWYFDVWGAGTTVTVSS
VL: DIVLTQSPSSLAVSAGEKVTMTCKSSQSLLNSRTRKNYLAWYQQKPGQSPKLLIYWASTRESGVPDRFTGSGSGTDFTLTISSVQAEDLAVYYCKQSYNLYTFGGGTKLEIKR
B3: in assay [5], the binding result is reported as “binds”.

B4: G2-1 (human IgG1 heavy chain and human Igk light chain constant regions) (antibody, V domains shown)
VH: EVQLLESGGGVVQPGRSLRLSCAASGFTFSSYAMSWVRQAPGKGLEWVSVISYDGSNKAYADSVKGRFTISRDNSKNTLYLQMNSLRAEDTAVYYCARGRSYYDSSGYLFDYWGQGTLVTVSS
VL: DIQMTQPHSVSESVGKTVIITCTGGGGSIDTNYVQWYQQRPGSAPVTLIYEDDQRPFGVPDRFSAAIDTSSSSASLTISGLTAEDEATYYCQSSHSTAVVFGGGTKVEIKR
notes: scFv clone from a human scFv library, cloned as human IgG1/kappa; also called G2-1-HRP (horse radish peroxidase labeled)
B4: in assay [3], the Kd is 3.02 nM, the koff worked out at 0.00198 s⁻¹ and the kon stood at 635000 M⁻¹ s⁻¹.

B5: G2-2opti (IgG2a) (antibody, V domains shown)
VH: QVQLVQSGGGVVQPGRSLRLSCAASGFTFSSYGMHWVRQAPGKGLEWVAVISYDGSNKYYADSVKGRFTISRDNSKNTLYLQMNSLRAEDTAVYYCAREGSAGMDVWGQGTTVTVSS
VL: QAVLTQPSSLSASPGASASLTCTLRSDISVGFHRIYWYQQKPGSPPQYLLRYKSDSDKQQGSGVPSRFSGSKDASANAGILLISGLQSDDEADYYCVIWHTSGVVFGGGTKLTVL
notes: 'a chimeric human/murine version with a murine CH2 and CH2'
On to B5, for which the binding result in assay [6] is “no binding (tested: 5.0 ug/ml)”; in assay [7], “binds”; in assay [8] it was “binds”.
